The record followed here is patent US20250171562A1 (ALK ABELL, published 2025).

B1: CIgG4B1A1(G4S)2 (Fc fusion)
chain 1: GPPCPPCPAPEFLGGPSVFLFPPKPKDTLMISRTPEVTCVVVDVSQEDPEVQFNWYVDGVEVHNAKTKPREEQFNSTYRVVSVLTVLHQDWLNGKEYKCKVSNKGLPSSIEKTISKAKGQPREPQVYTLPPCQEEMTKNQVSLWCLVKGFYPSDIAVEWESNGQPENNYKTTPPVLDSDGSFFLYSRLTVDKSRWQEGNVFSCSVMHEALHNHYTQKSLSLSLGKGGGGSGGGGSQVQLQESGGGLVQTGGSLRLSCAVHGRTFSNTGMGWFRQAPGNERQFVAIISPSGTSTYYADSVKGRFTISRDPAKNTVYLQMNSLKMDDTAVYYCAASYGSNWSTLRHQRRNEYDAWGQGTQVAVS
chain 2: GPPCPPCPAPEFLGGPSVFLFPPKPKDTLMISRTPEVTCVVVDVSQEDPEVQFNWYVDGVEVHNAKTKPREEQFNSTYRVVSVLTVLHQDWLNGKEYKCKVSNKGLPSSIEKTISKAKGQPREPQVCTLPPSQEEMTKNQVSLSCAVKGFYPSDIAVEWESNGQPENNYKTTPPVLDSDGSFFLVSRLTVDKSRWQEGNVFSCSVMHEALHNHYTQKSLSLSLGKGGGGSGGGGSEVQLLESGGGLVQPGGSLRLSCAASGFTFGNYDMAWVRQAPGKRPEWVSSIDTGGDITHYADSVKGRFTISRDNAKNTLYLQMNSLRPEDTAVYWCATDEEYALGPNEFDYYGQGTLVTVSS
B2: CIgG4B1A1(G4S)1 (Fc fusion)
chain 1: GPPCPPCPAPEFLGGPSVFLFPPKPKDTLMISRTPEVTCVVVDVSQEDPEVQFNWYVDGVEVHNAKTKPREEQFNSTYRVVSVLTVLHQDWLNGKEYKCKVSNKGLPSSIEKTISKAKGQPREPQVYTLPPCQEEMTKNQVSLWCLVKGFYPSDIAVEWESNGQPENNYKTTPPVLDSDGSFFLYSRLTVDKSRWQEGNVFSCSVMHEALHNHYTQKSLSLSLGKGGGGSQVQLQESGGGLVQTGGSLRLSCAVHGRTFSNTGMGWFRQAPGNERQFVAIISPSGTSTYYADSVKGRFTISRDPAKNTVYLQMNSLKMDDTAVYYCAASYGSNWSTLRHQRRNEYDAWGQGTQVAVS
chain 2: GPPCPPCPAPEFLGGPSVFLFPPKPKDTLMISRTPEVTCVVVDVSQEDPEVQFNWYVDGVEVHNAKTKPREEQFNSTYRVVSVLTVLHQDWLNGKEYKCKVSNKGLPSSIEKTISKAKGQPREPQVCTLPPSQEEMTKNQVSLSCAVKGFYPSDIAVEWESNGQPENNYKTTPPVLDSDGSFFLVSRLTVDKSRWQEGNVFSCSVMHEALHNHYTQKSLSLSLGKGGGGSEVQLLESGGGLVQPGGSLRLSCAASGFTFGNYDMAWVRQAPGKRPEWVSSIDTGGDITHYADSVKGRFTISRDNAKNTLYLQMNSLRPEDTAVYWCATDEEYALGPNEFDYYGQGTLVTVSS
B3: CIgG4B1A1(RS) (Fc fusion)
chain 1: GPPCPPCPAPEFLGGPSVFLFPPKPKDTLMISRTPEVTCVVVDVSQEDPEVQFNWYVDGVEVHNAKTKPREEQFNSTYRVVSVLTVLHQDWLNGKEYKCKVSNKGLPSSIEKTISKAKGQPREPQVYTLPPCQEEMTKNQVSLWCLVKGFYPSDIAVEWESNGQPENNYKTTPPVLDSDGSFFLYSRLTVDKSRWQEGNVFSCSVMHEALHNHYTQKSLSLSLGKRSQVQLQESGGGLVQTGGSLRLSCAVHGRTFSNTGMGWFRQAPGNERQFVAIISPSGTSTYYADSVKGRFTISRDPAKNTVYLQMNSLKMDDTAVYYCAASYGSNWSTLRHQRRNEYDAWGQGTQVAVS
chain 2: GPPCPPCPAPEFLGGPSVFLFPPKPKDTLMISRTPEVTCVVVDVSQEDPEVQFNWYVDGVEVHNAKTKPREEQFNSTYRVVSVLTVLHQDWLNGKEYKCKVSNKGLPSSIEKTISKAKGQPREPQVCTLPPSQEEMTKNQVSLSCAVKGFYPSDIAVEWESNGQPENNYKTTPPVLDSDGSFFLVSRLTVDKSRWQEGNVFSCSVMHEALHNHYTQKSLSLSLGKRSEVQLLESGGGLVQPGGSLRLSCAASGFTFGNYDMAWVRQAPGKRPEWVSSIDTGGDITHYADSVKGRFTISRDNAKNTLYLQMNSLRPEDTAVYWCATDEEYALGPNEFDYYGQGTLVTVSS
B4: NIgG4A1A1(RS) (Fc fusion)
chain 1: EVQLLESGGGLVQPGGSLRLSCAASGFTFGNYDMAWVRQAPGKRPEWVSSIDTGGDITHYADSVKGRFTISRDNAKNTLYLQMNSLRPEDTAVYWCATDEEYALGPNEFDYYGQGTLVTVSSRSGPPCPPCPAPEFLGGPSVFLFPPKPKDTLMISRTPEVTCVVVDVSQEDPEVQFNWYVDGVEVHNAKTKPREEQFNSTYRVVSVLTVLHQDWLNGKEYKCKVSNKGLPSSIEKTISKAKGQPREPQVYTLPPCQEEMTKNQVSLWCLVKGFYPSDIAVEWESNGQPENNYKTTPPVLDSDGSFFLYSRLTVDKSRWQEGNVFSCSVMHEALHNHYTQKSLSLSLGK
chain 2: EVQLLESGGGLVQPGGSLRLSCAASGFTFGNYDMAWVRQAPGKRPEWVSSIDTGGDITHYADSVKGRFTISRDNAKNTLYLQMNSLRPEDTAVYWCATDEEYALGPNEFDYYGQGTLVTVSSRSGPPCPPCPAPEFLGGPSVFLFPPKPKDTLMISRTPEVTCVVVDVSQEDPEVQFNWYVDGVEVHNAKTKPREEQFNSTYRVVSVLTVLHQDWLNGKEYKCKVSNKGLPSSIEKTISKAKGQPREPQVCTLPPSQEEMTKNQVSLSCAVKGFYPSDIAVEWESNGQPENNYKTTPPVLDSDGSFFLVSRLTVDKSRWQEGNVFSCSVMHEALHNHYTQKSLSLSLGK
B5: NIgG4A1A1(G4S)1 (Fc fusion)
chain 1: EVQLLESGGGLVQPGGSLRLSCAASGFTFGNYDMAWVRQAPGKRPEWVSSIDTGGDITHYADSVKGRFTISRDNAKNTLYLQMNSLRPEDTAVYWCATDEEYALGPNEFDYYGQGTLVTVSSGGGGSGPPCPPCPAPEFLGGPSVFLFPPKPKDTLMISRTPEVTCVVVDVSQEDPEVQFNWYVDGVEVHNAKTKPREEQFNSTYRVVSVLTVLHQDWLNGKEYKCKVSNKGLPSSIEKTISKAKGQPREPQVYTLPPCQEEMTKNQVSLWCLVKGFYPSDIAVEWESNGQPENNYKTTPPVLDSDGSFFLYSRLTVDKSRWQEGNVFSCSVMHEALHNHYTQKSLSLSLGK
chain 2: EVQLLESGGGLVQPGGSLRLSCAASGFTFGNYDMAWVRQAPGKRPEWVSSIDTGGDITHYADSVKGRFTISRDNAKNTLYLQMNSLRPEDTAVYWCATDEEYALGPNEFDYYGQGTLVTVSSGGGGSGPPCPPCPAPEFLGGPSVFLFPPKPKDTLMISRTPEVTCVVVDVSQEDPEVQFNWYVDGVEVHNAKTKPREEQFNSTYRVVSVLTVLHQDWLNGKEYKCKVSNKGLPSSIEKTISKAKGQPREPQVCTLPPSQEEMTKNQVSLSCAVKGFYPSDIAVEWESNGQPENNYKTTPPVLDSDGSFFLVSRLTVDKSRWQEGNVFSCSVMHEALHNHYTQKSLSLSLGK
B6: NIgG4A1A1(G4S)2 (Fc fusion)
chain 1: EVQLLESGGGLVQPGGSLRLSCAASGFTFGNYDMAWVRQAPGKRPEWVSSIDTGGDITHYADSVKGRFTISRDNAKNTLYLQMNSLRPEDTAVYWCATDEEYALGPNEFDYYGQGTLVTVSSGGGGSGGGGSGPPCPPCPAPEFLGGPSVFLFPPKPKDTLMISRTPEVTCVVVDVSQEDPEVQFNWYVDGVEVHNAKTKPREEQFNSTYRVVSVLTVLHQDWLNGKEYKCKVSNKGLPSSIEKTISKAKGQPREPQVYTLPPCQEEMTKNQVSLWCLVKGFYPSDIAVEWESNGQPENNYKTTPPVLDSDGSFFLYSRLTVDKSRWQEGNVFSCSVMHEALHNHYTQKSLSLSLGK
chain 2: EVQLLESGGGLVQPGGSLRLSCAASGFTFGNYDMAWVRQAPGKRPEWVSSIDTGGDITHYADSVKGRFTISRDNAKNTLYLQMNSLRPEDTAVYWCATDEEYALGPNEFDYYGQGTLVTVSSGGGGSGGGGSGPPCPPCPAPEFLGGPSVFLFPPKPKDTLMISRTPEVTCVVVDVSQEDPEVQFNWYVDGVEVHNAKTKPREEQFNSTYRVVSVLTVLHQDWLNGKEYKCKVSNKGLPSSIEKTISKAKGQPREPQVCTLPPSQEEMTKNQVSLSCAVKGFYPSDIAVEWESNGQPENNYKTTPPVLDSDGSFFLVSRLTVDKSRWQEGNVFSCSVMHEALHNHYTQKSLSLSLGK
B7: CIgG4B1A1(G4S3) (Fc fusion)
chain 1: GPPCPPCPAPEFLGGPSVFLFPPKPKDTLMISRTPEVTCVVVDVSQEDPEVQFNWYVDGVEVHNAKTKPREEQFNSTYRVVSVLTVLHQDWLNGKEYKCKVSNKGLPSSIEKTISKAKGQPREPQVYTLPPCQEEMTKNQVSLWCLVKGFYPSDIAVEWESNGQPENNYKTTPPVLDSDGSFFLYSRLTVDKSRWQEGNVFSCSVMHEALHNHYTQKSLSLSLGKGGGGSGGGGSGGGGSQVQLQESGGGLVQTGGSLRLSCAVHGRTFSNTGMGWFRQAPGNERQFVAIISPSGTSTYYADSVKGRFTISRDPAKNTVYLQMNSLKMDDTAVYYCAASYGSNWSTLRHQRRNEYDAWGQGTQVAVS
chain 2: GPPCPPCPAPEFLGGPSVFLFPPKPKDTLMISRTPEVTCVVVDVSQEDPEVQFNWYVDGVEVHNAKTKPREEQFNSTYRVVSVLTVLHQDWLNGKEYKCKVSNKGLPSSIEKTISKAKGQPREPQVCTLPPSQEEMTKNQVSLSCAVKGFYPSDIAVEWESNGQPENNYKTTPPVLDSDGSFFLVSRLTVDKSRWQEGNVFSCSVMHEALHNHYTQKSLSLSLGKGGGGSGGGGSGGGGSEVQLLESGGGLVQPGGSLRLSCAASGFTFGNYDMAWVRQAPGKRPEWVSSIDTGGDITHYADSVKGRFTISRDNAKNTLYLQMNSLRPEDTAVYWCATDEEYALGPNEFDYYGQGTLVTVSS

T1 sequence (P01854 other isoform, or with tags, fused parts or gaps): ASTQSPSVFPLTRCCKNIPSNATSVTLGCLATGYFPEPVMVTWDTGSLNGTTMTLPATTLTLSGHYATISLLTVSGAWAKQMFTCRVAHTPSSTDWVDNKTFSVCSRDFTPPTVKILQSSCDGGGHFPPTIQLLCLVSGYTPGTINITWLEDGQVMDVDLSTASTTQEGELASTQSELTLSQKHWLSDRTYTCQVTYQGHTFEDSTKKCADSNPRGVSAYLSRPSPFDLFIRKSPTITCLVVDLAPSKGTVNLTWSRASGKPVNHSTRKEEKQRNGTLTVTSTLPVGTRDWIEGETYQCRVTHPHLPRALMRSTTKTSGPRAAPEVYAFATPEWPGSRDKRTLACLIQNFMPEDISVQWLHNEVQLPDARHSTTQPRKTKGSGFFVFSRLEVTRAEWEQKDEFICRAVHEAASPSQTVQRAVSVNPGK

This assay addresses T1, recombinant human IgE (human, UniProt P01854-1 1-428).
T1 construct: made in-house (ALK); preloaded on immobilised FcεRIα in the displacement ELISA
The assay can be described thus: IgE-FcεRIα displacement ELISA. On the procedure:
The displacement effect was tested using IgE-FcεRIα displacement ELISA assay. Maxisorp® microtiter plates (Thermo Scientific Nunc, Roskilde, Denmark) were coated with 100 μl streptavidin, 5 μg/ml (Thermo Scientific, Waltham, MA) for 18 h at 4° C. followed by wash with 300 μl washing buffer (PBS containing 0.05% Tween 20) using an AquaMax® 2000 plate washer (Molecular Devices, San Jose, CA). Remaining binding sites were blocked with 250 μl blocking buffer (PBS containing 2% BSA) for 2 h and washed with 300 μl washing buffer. Subsequently, the bound streptavidin was loaded with 100 μl (0.1 μg/ml) recombinant human FcεRIα (site specific biotinylated via avi-tag, made in-house, ALK, Hørsholm, Denmark) for 1 h and plates washed twice with 300 μl washing buffer. The bound receptor was then loaded with 100 μl recombinant human IgE (made in-house, ALK, Hørsholm, Denmark), 13 ng/ml (pre-titrated to reach an OD₄₅₀ signal in the range of 1.5-2.5 in the absence of displacement components) for 1h followed by three washes of 300 μl washing buffer.
displacement step: 100 μl sdAbs diluted in concentration series (pM-μM range) or blocking buffer only as a non-displacement negative control, were added to the ELISA wells and incubated for 1 h. Any IgE, displaced from the receptor by a sdAb was washed away by three washes of 300 μl washing buffer.
The ability of the various sdAbs to displace IgE from the receptor (FcεRIα) was evaluated by use of the ELISA based IgE-FcεRIα displacement assay. The percent displacement effect was calculated as the relative reduction in signal compared to the control with no sdAb added. The EC₅₀ values and the maximal effects were determined (table 15).
On to B1, for which the EC50 came to 4 nM and the Max effect was more than 95%.
The matching figures for B2: 3.1 nM and more than 95%.
As to B3, the concentration giving a half-maximal response (EC50) is 9.8 nM and the Max effect was more than 95%.
Regarding B4, the EC50 was found to be 490 nM.
For the molecule B5, the half-maximal effective concentration (EC50) was 260 nM.
The same measure, in the same setting: to B6 belongs 230 nM.
For the molecule B7, the EC50 amounted to 3.5 nM and the Max effect was more than 95%.

The term EC50 denotes the concentration that produces a half-maximal response.
